Measured values published in PMC12187939.

Experiments:
[1] = target: p300, A549 nuclear extract (UniProt Q09472); test: FLAG IP/MS; conditions: nuclear fractions from A549 cells; four individual replicates; read off a plot
[2] = target: CBP, A549 nuclear extract (UniProt Q92793); test: FLAG IP/MS; conditions: nuclear fractions from A549 cells; four individual replicates; read off a plot
Sequence of UniProt Q92793 (Q92793 whole entry): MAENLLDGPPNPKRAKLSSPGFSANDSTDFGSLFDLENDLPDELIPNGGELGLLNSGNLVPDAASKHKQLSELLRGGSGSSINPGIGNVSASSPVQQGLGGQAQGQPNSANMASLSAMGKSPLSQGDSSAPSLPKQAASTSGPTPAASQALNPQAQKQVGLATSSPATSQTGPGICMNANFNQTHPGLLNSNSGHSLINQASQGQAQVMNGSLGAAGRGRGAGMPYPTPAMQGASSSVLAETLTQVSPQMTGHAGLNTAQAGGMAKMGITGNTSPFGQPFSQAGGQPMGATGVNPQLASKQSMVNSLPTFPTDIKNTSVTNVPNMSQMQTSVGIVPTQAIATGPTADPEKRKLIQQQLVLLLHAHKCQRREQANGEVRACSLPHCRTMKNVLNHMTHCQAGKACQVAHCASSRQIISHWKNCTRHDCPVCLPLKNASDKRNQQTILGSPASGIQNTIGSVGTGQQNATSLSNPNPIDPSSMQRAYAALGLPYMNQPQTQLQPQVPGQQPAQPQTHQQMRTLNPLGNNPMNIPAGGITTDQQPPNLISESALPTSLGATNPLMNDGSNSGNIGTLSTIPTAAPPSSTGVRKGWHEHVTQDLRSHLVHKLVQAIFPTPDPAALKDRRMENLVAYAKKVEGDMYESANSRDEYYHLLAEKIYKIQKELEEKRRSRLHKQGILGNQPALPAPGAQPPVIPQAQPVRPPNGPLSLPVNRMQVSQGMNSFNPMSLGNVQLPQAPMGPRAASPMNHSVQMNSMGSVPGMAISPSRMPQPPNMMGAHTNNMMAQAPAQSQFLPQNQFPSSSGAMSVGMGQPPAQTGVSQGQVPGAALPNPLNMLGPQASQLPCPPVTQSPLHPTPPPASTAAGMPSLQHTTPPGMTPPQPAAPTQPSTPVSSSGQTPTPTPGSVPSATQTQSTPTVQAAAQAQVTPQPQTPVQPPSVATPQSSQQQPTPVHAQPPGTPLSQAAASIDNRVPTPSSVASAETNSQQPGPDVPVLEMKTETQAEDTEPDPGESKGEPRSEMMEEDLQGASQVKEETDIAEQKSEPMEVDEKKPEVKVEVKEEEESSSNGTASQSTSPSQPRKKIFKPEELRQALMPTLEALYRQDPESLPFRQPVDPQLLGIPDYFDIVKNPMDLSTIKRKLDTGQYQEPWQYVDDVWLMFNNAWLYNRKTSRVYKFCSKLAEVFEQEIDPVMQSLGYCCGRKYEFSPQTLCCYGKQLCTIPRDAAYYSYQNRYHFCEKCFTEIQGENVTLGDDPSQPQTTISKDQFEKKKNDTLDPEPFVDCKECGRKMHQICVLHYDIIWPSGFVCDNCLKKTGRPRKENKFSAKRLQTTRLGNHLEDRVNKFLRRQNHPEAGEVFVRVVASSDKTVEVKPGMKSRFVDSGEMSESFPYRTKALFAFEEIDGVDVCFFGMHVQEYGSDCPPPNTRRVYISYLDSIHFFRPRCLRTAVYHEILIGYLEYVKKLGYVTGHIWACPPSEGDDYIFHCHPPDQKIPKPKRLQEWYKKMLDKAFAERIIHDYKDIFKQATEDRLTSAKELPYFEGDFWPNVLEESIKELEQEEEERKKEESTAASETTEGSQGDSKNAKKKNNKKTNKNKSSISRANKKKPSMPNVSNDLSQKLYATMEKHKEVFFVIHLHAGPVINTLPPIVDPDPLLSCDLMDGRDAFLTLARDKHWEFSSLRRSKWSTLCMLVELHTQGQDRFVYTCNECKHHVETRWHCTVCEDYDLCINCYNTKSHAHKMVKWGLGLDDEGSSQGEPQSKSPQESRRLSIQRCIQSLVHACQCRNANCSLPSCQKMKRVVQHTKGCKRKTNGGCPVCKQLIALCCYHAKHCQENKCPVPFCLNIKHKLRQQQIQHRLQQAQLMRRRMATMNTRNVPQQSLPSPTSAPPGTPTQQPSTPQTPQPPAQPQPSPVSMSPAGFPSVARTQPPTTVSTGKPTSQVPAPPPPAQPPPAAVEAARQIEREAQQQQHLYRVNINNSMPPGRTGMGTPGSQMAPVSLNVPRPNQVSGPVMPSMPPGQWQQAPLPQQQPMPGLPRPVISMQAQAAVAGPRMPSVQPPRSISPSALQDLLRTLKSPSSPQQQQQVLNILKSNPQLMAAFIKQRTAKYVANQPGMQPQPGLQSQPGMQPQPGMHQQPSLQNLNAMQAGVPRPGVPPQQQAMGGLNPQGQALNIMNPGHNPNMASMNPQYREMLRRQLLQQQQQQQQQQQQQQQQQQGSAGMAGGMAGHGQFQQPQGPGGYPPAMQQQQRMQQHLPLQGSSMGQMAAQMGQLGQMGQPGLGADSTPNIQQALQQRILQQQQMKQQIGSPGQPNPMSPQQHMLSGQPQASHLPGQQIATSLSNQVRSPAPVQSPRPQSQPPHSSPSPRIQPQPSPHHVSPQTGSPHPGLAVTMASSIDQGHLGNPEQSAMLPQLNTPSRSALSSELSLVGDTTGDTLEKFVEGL

Sequence of UniProt Q09472 (Q09472 whole entry): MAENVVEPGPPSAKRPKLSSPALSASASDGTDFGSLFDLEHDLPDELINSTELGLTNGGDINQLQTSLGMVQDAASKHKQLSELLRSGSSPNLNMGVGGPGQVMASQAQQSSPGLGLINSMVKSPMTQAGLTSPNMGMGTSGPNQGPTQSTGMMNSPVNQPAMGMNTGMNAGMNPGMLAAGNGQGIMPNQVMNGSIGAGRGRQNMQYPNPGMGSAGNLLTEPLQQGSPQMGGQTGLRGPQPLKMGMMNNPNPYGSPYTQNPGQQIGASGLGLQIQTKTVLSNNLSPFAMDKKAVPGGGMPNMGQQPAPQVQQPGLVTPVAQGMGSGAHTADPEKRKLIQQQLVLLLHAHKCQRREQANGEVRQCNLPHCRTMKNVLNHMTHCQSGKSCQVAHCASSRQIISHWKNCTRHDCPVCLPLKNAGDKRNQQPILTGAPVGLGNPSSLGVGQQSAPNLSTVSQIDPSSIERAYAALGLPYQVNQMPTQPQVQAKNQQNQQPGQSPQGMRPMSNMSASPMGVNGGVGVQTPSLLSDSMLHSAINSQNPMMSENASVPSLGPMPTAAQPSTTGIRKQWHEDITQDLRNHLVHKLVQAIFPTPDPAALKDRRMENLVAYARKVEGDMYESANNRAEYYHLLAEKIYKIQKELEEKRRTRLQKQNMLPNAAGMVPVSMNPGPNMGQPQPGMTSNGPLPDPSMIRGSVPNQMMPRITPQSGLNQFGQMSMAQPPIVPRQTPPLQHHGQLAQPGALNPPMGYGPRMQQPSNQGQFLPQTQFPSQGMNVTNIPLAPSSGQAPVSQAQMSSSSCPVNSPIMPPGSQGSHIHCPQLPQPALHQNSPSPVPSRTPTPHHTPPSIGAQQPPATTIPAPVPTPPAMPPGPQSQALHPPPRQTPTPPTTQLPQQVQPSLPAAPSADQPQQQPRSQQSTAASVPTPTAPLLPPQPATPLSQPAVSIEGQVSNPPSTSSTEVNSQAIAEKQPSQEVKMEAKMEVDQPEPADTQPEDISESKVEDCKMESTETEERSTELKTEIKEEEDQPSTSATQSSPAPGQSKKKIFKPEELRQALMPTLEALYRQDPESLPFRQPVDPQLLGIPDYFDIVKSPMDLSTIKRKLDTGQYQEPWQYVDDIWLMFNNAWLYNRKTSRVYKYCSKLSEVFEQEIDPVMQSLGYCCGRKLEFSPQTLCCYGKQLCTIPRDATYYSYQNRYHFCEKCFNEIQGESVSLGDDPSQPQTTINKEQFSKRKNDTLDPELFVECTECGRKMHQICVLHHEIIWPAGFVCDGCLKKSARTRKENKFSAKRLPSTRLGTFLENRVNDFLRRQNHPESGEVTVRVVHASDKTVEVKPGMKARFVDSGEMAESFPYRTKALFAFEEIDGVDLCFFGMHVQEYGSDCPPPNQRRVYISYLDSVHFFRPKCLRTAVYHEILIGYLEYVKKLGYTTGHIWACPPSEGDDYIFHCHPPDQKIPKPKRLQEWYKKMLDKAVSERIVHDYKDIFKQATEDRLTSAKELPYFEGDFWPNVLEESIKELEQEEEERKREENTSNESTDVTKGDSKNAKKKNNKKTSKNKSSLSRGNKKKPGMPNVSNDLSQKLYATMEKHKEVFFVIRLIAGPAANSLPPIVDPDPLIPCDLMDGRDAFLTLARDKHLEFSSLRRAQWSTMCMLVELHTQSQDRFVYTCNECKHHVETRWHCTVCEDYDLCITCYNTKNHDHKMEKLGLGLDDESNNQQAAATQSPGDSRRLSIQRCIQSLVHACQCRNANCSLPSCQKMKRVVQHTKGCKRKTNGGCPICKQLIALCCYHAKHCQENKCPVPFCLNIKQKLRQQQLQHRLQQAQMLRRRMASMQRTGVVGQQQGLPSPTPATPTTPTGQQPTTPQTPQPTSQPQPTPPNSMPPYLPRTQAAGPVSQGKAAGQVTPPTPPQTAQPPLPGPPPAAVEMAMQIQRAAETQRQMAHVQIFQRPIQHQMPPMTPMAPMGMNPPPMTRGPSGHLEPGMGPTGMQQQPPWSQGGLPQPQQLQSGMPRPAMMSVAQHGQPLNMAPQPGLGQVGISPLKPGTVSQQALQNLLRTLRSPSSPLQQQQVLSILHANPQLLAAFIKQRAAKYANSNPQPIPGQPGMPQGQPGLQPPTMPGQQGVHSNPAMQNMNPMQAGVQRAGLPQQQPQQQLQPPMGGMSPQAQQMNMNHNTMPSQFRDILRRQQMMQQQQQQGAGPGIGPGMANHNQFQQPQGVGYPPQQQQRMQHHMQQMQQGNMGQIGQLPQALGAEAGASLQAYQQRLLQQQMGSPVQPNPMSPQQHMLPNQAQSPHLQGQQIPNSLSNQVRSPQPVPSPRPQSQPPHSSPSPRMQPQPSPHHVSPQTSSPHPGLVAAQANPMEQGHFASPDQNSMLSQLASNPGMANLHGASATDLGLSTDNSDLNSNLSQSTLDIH

other: log2(fold change) [1]: -3.2
other: log2(fold change) [2]: -3.8
Substance: FLAG-tagged WT NRF2, stably expressed in A549 (TRE3G-driven, dox-induced) (from UniProt Q16236) Neh4: …>… (F>A; D>A; C>A; L>A); Neh5: …>… (Q>A; D>A; E>A; L>A)
